Assay results taken from publication PMC12827578.

Biological target: CTLA4-FRB*-HA (UniProt P16410)

CTLA4-FH protein level by Western blot after Dox induction of FF-USP15 WT (18 h) and A/C 500 nM (24 h): > 2 fold
Substance: FLAG-FKBP-USP15 WT (from UniProt P62942 2-108) (enzyme)
